Residue numbers refer to the chain shown, from its start.
Experiments:
[1] = target: T1, Myotoxin II from Bothrops asper (Basic phospholipase A2 homolog 2, Uniprot P24605) (Bothrops asper, UniProt P24605 17-137); assay: cell-based or functional assay
[2] = target: T1, Myotoxin II from Bothrops asper (Basic …); assay: monoclonal IgG ELISA, dilution series (Fig. 2A legend)
[3] = target: T1, Myotoxin II from Bothrops asper (Basic …); assay: expression-normalized capture (ENC) assay, antigen at 10 nM (data not shown)

T1 sequence (P24605 17-137, one chain of several): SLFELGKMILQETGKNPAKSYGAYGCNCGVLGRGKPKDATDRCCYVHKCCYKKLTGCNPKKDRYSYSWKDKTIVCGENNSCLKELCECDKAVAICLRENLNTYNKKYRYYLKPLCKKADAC

B1: TPL0039_05_G08 IgG (antibody, V domains shown)
VH: EVQLVESGGGVVQPGRSLRLSCAASGFTFSSYGMHWVRQAPGKGLEWVAVISYDGSNKYYADSVKGRFTISRDNSKNTLYLQMNSLRAEDTAVYYCARTNYDSGDAFDIWGQGTLVTVSS
VL: NFMLTQPHSVSESPGKTVTISCTRSSGSIASNYVQWYQQRPGSSPTTVIYEDNQRPSGVPDRFSGSIDSSSNSASLTISGLKTEDEADYYCQSYDSSTVVFGGGTKLTVLG
fibroblast viability assay (CellTiter-Glo), toxin:IgG ratio for full neutralization [1]: 1 mol IgG per mol toxin (printed as toxin:IgG 1:1)

B2: TPL0039_05_F04 IgG (antibody, V domains shown)
VH: QVQLVESGGGVVQPGRSPRLSCAASGFTFSSYGMHWVRQAPGKGLEWVAVISYDGSNKYYADSVKGRFTISRDNSKNTLYLQMNSLRAEDTAVYYCAKDLEYSSSSWGQGTLVTVSS
VL: B1 VL with Y37F, N53D, D88T, Y90F, L107V
binding result [2]: binds

B3: TPL0039_05_B12 IgG (antibody, V domains shown)
VH: EVQLVESGGGVVQPGRSLRLSCAASGFTFSSYGMHWVRQAPGKGLEWVAVISYDGSNKYYADSVKGRFTISRDNSKNTLYLQMNSLRAEDTAVYYCAGWTEGDAFDIWGQGTLVTVSS
VL: B1 VL with S44A, T46S, Q54R, S70A, T98S, L107I
fibroblast viability assay (CellTiter-Glo), toxin:IgG ratio for full neutralization [1]: 0.5 mol IgG per mol toxin (printed as toxin:IgG 1:0.5)

B4: TPL0039_05_F04 scFv (scFv, V domains shown)
VH: B2 VH
VL: B1 VL with Y37F, N53D, D88T, Y90F, L107V
binding result [3]: binds

B5: TPL0039_05_A03 IgG (antibody, V domains shown)
VH: QVQLVESGGGLAKPGRSLRLSCAVSGFTFSSYGMHWVRQAPGKGLEWVAVISYDGSNKYYADSVKGRFTISRDNSKNTLYLQMNSLRAEDTAVYYCASTLQQLDAFDIWGQGTMVTVSS
VL: B1 VL with V18I, S44V, T47P, N53D, Q54R, T98S, L107I
fibroblast viability assay (CellTiter-Glo), toxin:IgG ratio for full neutralization [1]: 0.5 mol IgG per mol toxin (printed as toxin:IgG 1:0.5)

B6: TPL0039_05_B04 IgG (antibody, V domains shown)
VH: B3 VH with V5L, G98R, W99V, T100G, G102N, D103E, L113M
VL: B1 VL with S31R, S44A
fibroblast viability assay (CellTiter-Glo), toxin:IgG ratio for full neutralization [1]: 0.5 mol IgG per mol toxin (printed as toxin:IgG 1:0.5)
